Paper PMC7966918 (Cell Research, 2021)

B1: P2B-1A10 (full-length IgG) (antibody, V domains shown)
VH: EVQLVESGGGLIQPGGSLRLSCAASGFTVSSNYMSWVRQAPGKGLEWVSVIYSGGSTYYADSVKGRFTISRDNSKNTLYLQMNSLRAEDTAVYYCAREGPKSITGTAFDIWGQGTIVTVSS
VL: DIQMTQSPSSLSASVGDRVTITCQASQDISNYFNWYQQKPGKAPKLLIYDASNLETGVPSRFSGSGSGTDFTFTISSLQPEDIATYYCQQYDNLPMYTFGQGTKLEIK
B2: P5A-2G9 (full-length IgG) (antibody, V domains shown)
VH: QVQLVESGGGVVQPGRSLRLSCAASGFTFSSYGMHWVRQAPGKGLEWVAVIWYDGSNKYYADSVKGRFTISRDNSKNTLYLQMNSLRAEDTAVYYCARWFHTGGYFDYWGQGTLVTVSS
VL: QPVLTQPPSSSASPGESARLTCTLPSDINVSSYNIYWYQQKPGSPPRYLLYYYSDSDKGQGSGVPSRFSGSKDASANTGILLISGLQSEDEADYYCMIWPSNALYVFGTGTKVTVL

Target: T1, SARS-CoV-2 S protein extracellular domain (S-ECD, 1–1208 aa) (SARS-CoV-2, Wuhan-Hu-1 (GenBank …, UniProt P0DTC2, proline substitution at residue 986 | proline substitution at residue 987 | …))
T1 construct: also called S trimer; trimeric S protein
Test: cryo-EM structure
Details: both partners purified

Binder | binding result
B1 | binds
B2 | binds
